The data set has as its target mouse DLX2 (Mus musculus, UniProt P40764 1-332). Nature of the data set: EMSA. Background: In EMSA bound probe runs differently from free probe, usually more slowly.

Chain of mouse DLX2 (P40764 whole entry): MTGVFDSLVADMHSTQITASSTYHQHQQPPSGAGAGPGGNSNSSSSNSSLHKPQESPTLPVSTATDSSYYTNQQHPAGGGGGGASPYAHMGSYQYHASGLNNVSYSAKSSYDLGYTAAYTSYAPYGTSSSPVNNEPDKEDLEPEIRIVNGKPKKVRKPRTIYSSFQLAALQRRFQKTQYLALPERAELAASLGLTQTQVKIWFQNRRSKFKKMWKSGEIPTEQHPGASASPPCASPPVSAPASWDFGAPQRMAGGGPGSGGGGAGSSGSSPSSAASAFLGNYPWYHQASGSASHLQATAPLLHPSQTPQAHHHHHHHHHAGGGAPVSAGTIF

B1: mR6ii (dsDNA)
DNA 1: GATCCCGCCCCAATAGGTACTAATGACTGCCTGGGTGTCTACACTCACCG
DNA 2: CGGTGAGTGTAGACACCCAGGCAGTCATTAGTACCTATTGGGGCGGGATC
On to B1, for which the binding result was “no binding”.

(Values after paper doi:10.1101/2020.04.09.012385.)
